This note sets out measurements from patent publication US20030133924A1.

Assay [1] has as its target Mannose 6-phosphate (M6P) receptor purified from bovine liver, coupled to NHS-Sepharose 4B FF resin (bovine). The experiment in a line: M6P receptor affinity column, 0-1 mM then 5 mM M6P elution; GBA activity in fractions (FIG. 1B).
Assay [2] shares this target. The experiment in a line: M6P receptor affinity column, 0-1 mM then 5 mM M6P elution; GBA activity in fractions (FIG. 1A).

Chain of Mannose 6-phosphate (M6P) receptor purified from bovine liver, coupled to NHS-Sepharose 4B FF resin (bovine) (P08169 45-2499): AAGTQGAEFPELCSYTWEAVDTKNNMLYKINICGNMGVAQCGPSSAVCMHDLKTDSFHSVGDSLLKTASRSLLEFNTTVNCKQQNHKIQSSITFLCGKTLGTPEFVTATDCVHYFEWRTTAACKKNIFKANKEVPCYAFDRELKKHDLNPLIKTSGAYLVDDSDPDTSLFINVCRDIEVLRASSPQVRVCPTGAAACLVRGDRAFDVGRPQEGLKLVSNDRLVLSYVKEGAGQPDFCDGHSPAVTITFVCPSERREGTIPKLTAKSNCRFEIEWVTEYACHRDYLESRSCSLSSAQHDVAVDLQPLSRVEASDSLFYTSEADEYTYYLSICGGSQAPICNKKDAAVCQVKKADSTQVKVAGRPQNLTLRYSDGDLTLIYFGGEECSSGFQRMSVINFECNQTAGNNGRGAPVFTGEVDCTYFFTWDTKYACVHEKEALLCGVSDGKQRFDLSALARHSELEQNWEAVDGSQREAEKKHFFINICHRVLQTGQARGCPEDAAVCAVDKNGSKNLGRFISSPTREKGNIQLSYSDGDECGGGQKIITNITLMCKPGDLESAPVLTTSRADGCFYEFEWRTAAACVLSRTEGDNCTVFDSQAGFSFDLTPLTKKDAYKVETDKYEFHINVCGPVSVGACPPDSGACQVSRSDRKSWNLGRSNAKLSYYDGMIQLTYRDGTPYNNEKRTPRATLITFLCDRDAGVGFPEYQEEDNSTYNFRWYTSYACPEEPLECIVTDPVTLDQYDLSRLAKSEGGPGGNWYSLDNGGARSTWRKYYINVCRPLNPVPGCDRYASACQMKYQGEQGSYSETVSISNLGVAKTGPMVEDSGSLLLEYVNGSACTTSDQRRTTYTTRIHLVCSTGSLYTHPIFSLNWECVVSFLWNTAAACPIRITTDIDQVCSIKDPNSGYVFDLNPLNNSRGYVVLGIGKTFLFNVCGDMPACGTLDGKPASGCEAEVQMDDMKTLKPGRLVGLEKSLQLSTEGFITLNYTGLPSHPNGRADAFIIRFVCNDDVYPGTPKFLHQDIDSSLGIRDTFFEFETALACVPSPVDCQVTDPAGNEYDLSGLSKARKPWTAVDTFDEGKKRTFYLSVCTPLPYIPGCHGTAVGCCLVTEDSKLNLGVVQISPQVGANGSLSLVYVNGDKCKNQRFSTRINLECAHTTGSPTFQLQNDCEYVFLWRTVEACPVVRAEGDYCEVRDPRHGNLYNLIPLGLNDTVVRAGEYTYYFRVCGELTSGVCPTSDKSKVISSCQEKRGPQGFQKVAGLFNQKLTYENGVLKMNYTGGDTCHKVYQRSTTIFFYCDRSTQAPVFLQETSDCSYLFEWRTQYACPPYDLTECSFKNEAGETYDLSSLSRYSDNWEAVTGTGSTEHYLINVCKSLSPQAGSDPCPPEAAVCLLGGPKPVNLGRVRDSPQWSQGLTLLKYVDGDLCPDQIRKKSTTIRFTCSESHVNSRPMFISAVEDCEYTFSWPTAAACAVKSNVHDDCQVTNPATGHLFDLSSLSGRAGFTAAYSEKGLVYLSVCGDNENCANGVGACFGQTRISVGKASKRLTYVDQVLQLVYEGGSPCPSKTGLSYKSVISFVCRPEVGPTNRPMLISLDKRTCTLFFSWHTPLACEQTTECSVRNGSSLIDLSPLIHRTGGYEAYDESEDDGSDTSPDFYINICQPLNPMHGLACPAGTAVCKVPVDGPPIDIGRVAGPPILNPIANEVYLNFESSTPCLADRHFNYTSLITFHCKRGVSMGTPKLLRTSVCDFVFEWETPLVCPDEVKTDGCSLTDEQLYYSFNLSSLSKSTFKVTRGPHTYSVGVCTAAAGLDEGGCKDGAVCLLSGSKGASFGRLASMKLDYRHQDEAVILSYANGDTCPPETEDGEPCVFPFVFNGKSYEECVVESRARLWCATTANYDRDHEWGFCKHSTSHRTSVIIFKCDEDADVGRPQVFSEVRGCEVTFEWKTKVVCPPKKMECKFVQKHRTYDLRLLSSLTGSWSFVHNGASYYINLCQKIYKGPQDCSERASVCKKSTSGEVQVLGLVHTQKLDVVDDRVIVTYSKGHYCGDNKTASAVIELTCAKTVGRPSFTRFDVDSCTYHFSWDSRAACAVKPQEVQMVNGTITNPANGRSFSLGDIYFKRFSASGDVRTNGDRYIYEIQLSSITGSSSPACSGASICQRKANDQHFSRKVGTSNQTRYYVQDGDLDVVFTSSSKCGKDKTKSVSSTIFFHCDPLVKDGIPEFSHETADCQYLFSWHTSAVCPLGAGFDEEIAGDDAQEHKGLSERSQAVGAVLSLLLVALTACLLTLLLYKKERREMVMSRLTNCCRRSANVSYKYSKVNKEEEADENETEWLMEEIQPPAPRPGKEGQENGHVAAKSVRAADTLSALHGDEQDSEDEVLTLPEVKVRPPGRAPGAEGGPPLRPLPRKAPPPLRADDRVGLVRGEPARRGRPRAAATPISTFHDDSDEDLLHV

In the case of “highly phosphorylated human acid β-glucocerebrosidase (HP-GBA), treated with GlcNAc-phosphotransferase and uncovering enzyme (from UniProt P04062 40-536)”, in assay [1], the percent of GBA activity eluted after the start of the M6P gradient (retained on the receptor column) worked out at 77% and the percent of the retained GBA activity eluted only after the addition of 5 mM M6P worked out at 35%.

In assay [2], “human acid β-glucocerebrosidase (GBA), partially purified, before phosphorylation (from UniProt P04062 40-536) (enzyme)” had a percent of sample eluted prior to the start of the M6P gradient (not retained on the receptor column) above 99%.
